Data published in patent US11856945B2, “Methods and systems for preparing and preserving a biological sample” (Washington University, priority 2017, dated 2024).

What was measured:
[1] = Circular dichroism of insulin secondary structure; type: physicochemical
Protocol: To further confirm that ZIF-8 encapsulation preserves the insulin structure, circular dichroism (CD) spectroscopy was employed to characterize the secondary structure of insulin with and without ZIF-8 encapsulation after 1 week incubation at 40° C. (FIG. 26D). […] Inset: Secondary structure content of the three types of insulin obtained from the CD spectra. […] FIG. 30 discloses the following: Left: CD spectra of pristine insulin prior to agitation, released insulin from ZIF-8 encapsulation after 48 h agitation at 200 rpm and insulin without ZIF-8 encapsulation after 48 h agitation at 200 rpm; Right: secondary structure content of the three types of insulin obtained from the CD spectra. […] FIG. 31 discloses the following: Left: CD spectra of pristine insulin prior to exposure to ethyl acetate, released insulin from ZIF-8 encapsulation after exposure to ethyl acetate for 6 h and insulin without ZIF-8 encapsulation after exposure to ethyl acetate for 6 h; and, right: secondary structure content of the three types of insulin obtained from the CD spectra. […]
Circular dichroism (CD) spectroscopy. […] The insulin recovered from various treatments was quantified by BCA assay and diluted to 100 μg/mL in PBS. The secondary structures of insulin (α-helical content, β-sheet content) were analyzed using CDPro software from CD spectra.

[2] = Release of insulin from ZIF-8 encapsulation by EDTA; type: physicochemical; conditions: 30 mM zinc acetate with 120 mM 2-methylimidazole
From the text: Elevated temperature is the primary detrimental condition during insulin transport and storage, an issue likely to be exacerbated by the increasing epidemic of diabetes in the developing countries, where refrigeration or “cold chain” facilities are not guaranteed. At high temperatures, insulin undergoes both physical (such as unfolding, non-native aggregation and fibrillation) and chemical degradations (such as deamidation, disulfide destruction and reshuffling). […] After 1 week, the ZIF-8 encapsulated insulin was released by adding ethylenediaminetetraacetic acid (EDTA) to dissociate the ZIF-8 crystals by breaking the coordination bonds between zinc and 2-methylimidazole (FIG. 25). The released insulin and unencapsulated insulin were then quantified by ELISA. The preservation efficacy (insulin recovery %) was calculated by comparing the recovered amount of insulin to the insulin amount prior to incubation. […] Compared to the optimal precursor concentrations, the low insulin recovery upon using 10 mM zinc acetate with 40 mM 2-methylimidazole is attributed to the incomplete encapsulation of insulin (FIG. 24). […] The insulin amount in the solution was measured by ELISA and compared with total insulin amount before encapsulation. […]

[3] = system: streptozotocin-induced type 1 diabetic mice; assay: Blood glucose in streptozotocin-induced type 1 diabetic mice; type: in vivo; conditions: 1 mg/kg intravenous
Protocol: After establishing the chemical stability and structural integrity of ZIF-8 encapsulated insulin, the biological activity of ZIF-8 encapsulated insulin was assessed by measuring the effectiveness of ZIF-8 encapsulated insulin for treating hyperglycemia in streptozotocin-induced type 1 diabetic mice. […] The ZIF-8 encapsulated insulin was released by adding EDTA before injection. The blood glucose concentrations of mice in each group were then monitored for 12 h. […] Histological evaluation of the major organs of the mice at 5 days after intravenous injection of PBS or stabilized insulin. […] The ZIF-8 encapsulated insulin was released by adding EDTA before injection. Results are the mean±standard deviation (n=3). […] The partial loss of insulin bioactivity here could be attributed to the loss of structure integrity of insulin at elevated temperatures as confirmed by the aforementioned ELISA, CD and HPLC experiments.
Mice were anesthetized with 2% isoflurane.

[4] = system: STZ-induced type 1 diabetic mice; conditions: mouse, in vivo
Protocol: STZ-induced male C57BL/6 (6-10 weeks) type 1 diabetic mice were purchased from Jackson Laboratory (USA). The blood glucose levels of mice were tested 1 day before administration by collecting blood (˜3 μL) from the tail vein and measuring using the Clarity GL2Plus glucose monitor (VWR, USA). The mice were randomly divided into four groups (3 mice each group) and intravenously injected via lateral tail vein with PBS solution, insulin stored at −20° C., ZIF-8 preserved insulin (dissociated by EDTA) and insulin alone stored at 40° C. for 1 week, respectively. The insulin dose for each mouse was 1 mg/kg (125 μg/mL, ˜200 μL). The blood glucose level was measured from tail vein blood samples (˜3 μL) of mice at different time points (at 10, 20, 40, and 60 min, and once per hour afterward for the first 12 h in the day of administration). Mice were anesthetized with 2% isoflurane. The mice treated with ZIF-8 preserved insulin and PBS were sacrificed after 5 days administration, and major organs were collected and sliced for haematoxylin and eosin (H&E) staining.

[5] = Preservation of CA-125 spiked in serum/plasma dried on paper (ELISA); type: physicochemical
From the text: Further attention was given to blood (and components serum and plasma), the most common biospecimens in biological and clinical studies. Compared to urine, serum or plasma represents a more complex biological matrix due to the presence of large amount of various proteins such as albumin, globulins and fibrinogen. Before proceeding to assess the preservation of specific protein biomarker, it was confirmed that different types of proteins are extracted from the paper substrates containing dried serum with or without ZIF-8 encapsulation using sodium dodecyl sulfate-polyacrylamide gel electrophoresis (SDS-PAGE), indicating the potential of this technique in preserving multiple protein biomarkers simultaneously in serum or plasma (FIG. 16). […] Lane a, c and e are corresponding to eluate of volunteer #1, #2 and #3 serum without ZIF-8 encapsulation, respectively. Lane b, d and f are corresponding to eluate of volunteer #1, #2 and #3 serum with ZIF-8 encapsulation, respectively. CA-125, a serum biomarker for ovarian cancer, was used as the model protein and spiked into serum from healthy people. Considering extremely high concentration of serum proteins, the serum was first diluted (5-, 10- or 20-fold) before spiking CA-125 and adding ZIF-8 precursors to ensure ZIF-8 formation and more complete encapsulation. The CA-125 spiked serum samples, both with and without ZIF-8 encapsulation, were dried on paper and stored at 40° C. for 1 week. […] The poor preservation of CA-125 from 5- and 10-fold diluted serum was due to the incomplete ZIF-8 formation and encapsulation (FIG. 18). The encapsulation efficiency was calculated by subtracting the remaining CA-125 amount in the supernatant after encapsulation and centrifugation (concentration measured by ELISA) from the total CA-125 amount. […] Subsequently, CA-125 was spiked into three different matrices that represent typical blood-derived biospecimens (serum, heparin-anticoagulated plasma and EDTA-anticoagulated plasma from healthy people with 20-fold dilution), dried on paper substrates with and without ZIF-8 encapsulation, and subsequently stored at 25, 40, or 60° C. for different durations of time. CA-125 concentration in the eluate was quantified using sandwich ELISA. […] (FIG. 17D-F). FIGS. 17D-F show preservation efficacy of CA-125 spiked in serum, heparin-plasma or EDTA-plasma on paper card at 25, 40 or 60° C. for different durations.
Sample preparation. NGAL-spiked artificial urine (50 μg/ml of NGAL, 25 μl) or patient urine (25 μl) was first mixed with 2-methylimidazole aqueous solution (12.5 μl) and then zinc acetate dihydrate aqueous solution (12.5 μl). The final concentrations of 2-methylimidazole after mixing were 320 mM, 160 mM, 80 mM and 40 mM. […]

[6] = Preservation of CA-125 spiked in fresh blood under temperature fluctuations and shipping; type: physicochemical; conditions: plasma from spiked fresh blood, 20-fold diluted; 8 days 25/40° C. temperature cycles or 10 days shipping
Protocol: The applicability of this technique was assessed to preserve blood samples drawn in resource-limited settings. Unlike serum and plasma, in some embodiments the presence of a large quantity of whole cells (red and white blood cells and platelets) in blood affects ZIF-8 encapsulation of target protein biomarkers. Considering that in some embodiments ZIF-8 also forms a thick layer on cell surfaces56 and lead to incomplete encapsulation or preservation of target protein biomarkers, it is important to remove blood cells through centrifugation before ZIF-8 encapsulation of protein biomarkers. Unfortunately, centrifuge is typically inaccessible in resource-limited settings considering that conventional systems are bulky, expensive and electrically-powered. A hand-powered centrifuge was implemented that was able to separate plasma from whole blood within 10 minutes for subsequent ZIF-8 encapsulation (FIG. 19A). In order to mimic fresh whole blood samples from ovarian cancer patients, four different concentrations of CA-125 within pathological-relevant range from 25 ng/ml-25 μg/ml were spiked into fresh blood from healthy volunteers.58-59 Then the plasma samples (heparin-anticoagulated) were separated from blood and diluted 20-fold for ZIF-8 encapsulation. To assess the preservation efficacy of this approach under unregulated conditions, two sets of experiments were devised. […]

Substance: unencapsulated insulin: human recombinant insulin in solution without ZIF-8 encapsulation
- secondary structure (CD spectrum) ([1]; 1 week incubation at 40° C., versus pristine insulin): an increase in the β-sheet content along with the decrease in the α-helical content
- secondary structure (CD spectrum) ([1]; after mechanical agitation (48 h at 200 rpm)): from an overall rich helical to dominant β-sheet structure
- release of insulin from ZIF-8 by EDTA [2]: ~90%
- effect on blood glucose concentrations [3]: only moderately decreased glucose concentrations
- Mice weight Before [4]: 22.0 ± 0.2 g

Substance: cancer antigen 125 [CA-125]
- CA-125 preservation ([5]; 20-fold diluted serum, with ZIF-8 encapsulation, 40° C., one week): ~90%
- CA-125 preservation ([5]; serum, heparin-plasma and EDTA-plasma (20-fold dilution), 25° C., 4 weeks): ~50%
- CA-125 preservation ([5]; serum, heparin-plasma and EDTA-plasma (20-fold dilution), 40° C., 4 weeks): ~40%
- CA-125 preservation ([5]; serum, heparin-plasma and EDTA-plasma (20-fold dilution), 60° C., 4 weeks): ~30%
- CA-125 preservation [6]: 50-60%

Substance: Insulin at −20° C.: unencapsulated insulin solution stored frozen at −20° C., the gold standard control
- time blood glucose maintained in the normoglycemic range [3]: 4 h
- blood glucose after return to hyperglycemic range ([3]; within 12 h): ~550 mg/dL
